{"source": "patent US20220251236A1", "about": "(Boehringer Ingelheim, published 2022)", "key": {"[1]": {"target": "T1, Human CD3 E+G HuFc-6xHis (human)", "T1 construct": "also called hu CD3εγ-Fc", "T1 sequence (chain, as listed by the source limits assumed)": "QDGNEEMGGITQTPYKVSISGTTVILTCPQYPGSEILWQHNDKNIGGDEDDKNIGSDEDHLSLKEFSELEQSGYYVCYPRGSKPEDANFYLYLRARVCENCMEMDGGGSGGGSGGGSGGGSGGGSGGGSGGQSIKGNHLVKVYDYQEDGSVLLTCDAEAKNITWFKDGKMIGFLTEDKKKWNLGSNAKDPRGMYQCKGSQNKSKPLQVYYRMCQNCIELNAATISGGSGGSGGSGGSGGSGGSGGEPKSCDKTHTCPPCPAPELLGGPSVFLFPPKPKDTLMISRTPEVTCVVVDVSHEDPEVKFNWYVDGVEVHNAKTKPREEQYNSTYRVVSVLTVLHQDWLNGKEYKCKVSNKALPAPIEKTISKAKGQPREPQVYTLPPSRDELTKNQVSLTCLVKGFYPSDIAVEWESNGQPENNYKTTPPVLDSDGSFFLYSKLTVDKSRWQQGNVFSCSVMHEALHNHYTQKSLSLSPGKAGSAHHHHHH", "test": "SPR (ProteOn XPR36), CD3εγ-Fc amine-coupled, bispecific as analyte, equilibrium fit, Example 4A", "procedure": "(§1) The binding affinity of purified DLL3/CD3 bispecific constructs for recombinant human and cyno DLL3-ECD and Fc-fusion proteins of human and cyno CD3 εγ subunits was determined by Surface Plasmon Resonance (SPR), using a ProteOn XPR36 instrument (Bio-Rad). The running buffer and all dilutions (except where stated) were done in PBS-T-EDTA. The GLM sensor chip (Bio-Rad) was normalized and pre-conditioned as per the manufacturer's recommendations. The sensor chip was activated with equal mixture of EDC/s-NHS in the horizontal direction for 300 sec at a flow rate of 30 ul/min and immobilized with protein A/G (20 ug/ml in 10 mM acetate pH 4.5) in the horizontal direction for 300 sec at a flowrate of 30 ul/min resulting in ˜5000 RU of protein A/G on the surface. The sensor chip was deactivated with 1M ethanolamine HCl in the horizontal direction for 300 sec at a flowrate of 30 μl/min.\nFor binding kinetic determination to CD3, hu CD3εγ-Fc and cy CD3εγ-Fc (dissolved in pH 4.5 acetate) was immobilized directly onto the sensor surface through amine coupling for 140 sec at a flowrate of 30 μl/min vertically. The baseline was stabilized by injecting PBS-T-EDTA for 60 sec at a flowrate of 40 μl/min horizontally. The analyte (the bispecific molecule) was injected horizontally over the captured CD3εγ-Fc construct for 600 sec at a flowrate of 40 μl/min and a dissociation for 600 sec.\n(§2) The inter spot (interactions with sensor surface) and blank (PBS-T-EDTA) were subtracted from the raw data."}, "[2]": {"target": "T2, Cyno DLL3-His (cynomolgus monkey, UniProt Q9NYJ7 27-492 (human entry))", "T2 construct": "also called cy DLL3; recombinant cyno DLL3-ECD", "T2 chain": "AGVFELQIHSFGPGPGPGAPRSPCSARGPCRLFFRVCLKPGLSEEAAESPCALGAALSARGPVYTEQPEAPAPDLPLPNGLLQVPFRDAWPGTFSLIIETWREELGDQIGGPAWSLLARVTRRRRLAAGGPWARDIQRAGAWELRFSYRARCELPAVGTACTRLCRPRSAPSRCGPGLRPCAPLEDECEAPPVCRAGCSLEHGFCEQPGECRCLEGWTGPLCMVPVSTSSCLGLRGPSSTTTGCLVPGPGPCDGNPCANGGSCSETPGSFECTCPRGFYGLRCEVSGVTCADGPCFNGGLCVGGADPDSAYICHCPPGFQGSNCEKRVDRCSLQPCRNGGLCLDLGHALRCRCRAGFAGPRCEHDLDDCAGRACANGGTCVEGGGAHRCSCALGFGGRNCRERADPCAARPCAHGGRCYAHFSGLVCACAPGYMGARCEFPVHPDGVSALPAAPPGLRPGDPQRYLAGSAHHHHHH", "test": "SPR (ProteOn XPR36), bispecific captured on protein A/G, DLL3 as analyte, Example 4A", "procedure": "as §1\n(§3) For binding kinetic determination to DLL3, bispecific molecules were captured individually on the protein A/G surface vertically for 250 sec at a flowrate of 25 μl/min. The baseline was stabilized by injecting PBS-T-EDTA for 60 sec at a flowrate of 40 μl/min horizontally. The analyte (hu DLL3 or cy DLL3) was injected horizontally over the captured antibody for 600 sec at a flowrate of 40 μl/min and a dissociation for 2700 sec.\nas §2"}, "[3]": {"target": "T3, Human DLL3-His (human, UniProt Q9NYJ7 27-492)", "T3 construct": "also called huDLL3-His; hu DLL3", "T3 sequence": "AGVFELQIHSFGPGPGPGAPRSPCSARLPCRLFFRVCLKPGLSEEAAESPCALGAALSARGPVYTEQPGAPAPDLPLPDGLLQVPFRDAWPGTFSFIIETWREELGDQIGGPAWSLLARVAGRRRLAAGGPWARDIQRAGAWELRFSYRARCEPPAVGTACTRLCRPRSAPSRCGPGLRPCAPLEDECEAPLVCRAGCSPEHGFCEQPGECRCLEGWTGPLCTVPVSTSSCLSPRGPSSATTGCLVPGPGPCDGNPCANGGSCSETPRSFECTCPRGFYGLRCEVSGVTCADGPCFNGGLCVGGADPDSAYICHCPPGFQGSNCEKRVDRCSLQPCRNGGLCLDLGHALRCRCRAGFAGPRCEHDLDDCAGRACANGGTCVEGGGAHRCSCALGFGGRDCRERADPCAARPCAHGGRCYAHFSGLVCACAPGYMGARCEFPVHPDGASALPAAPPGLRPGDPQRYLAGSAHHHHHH", "test": "SPR (ProteOn XPR36), bispecific captured on protein A/G, DLL3 as analyte, Example 4A", "procedure": "as §1, §3, §2"}, "[4]": {"target": "T1, Human CD3 E+G HuFc-6xHis", "test": "SPR (ProteOn XPR36), HuCD3E_HuCD3G-Fc amine-coupled, bispecific as analyte, Example 4B", "method_in_brief": "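Human CD3ε/γ-Fc fusion is amine-coupled to the chip at pH 4.5. Anti-DLL3/CD3 bispecifics are injected as analyte in PBS-T-EDTA at 30 μl/min, with 600 s association and 1800 s dissociation. Binding kinetics are measured by SPR.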"}, "[5]": {"target": "T2, Cyno DLL3-His", "test": "SPR; ratio of the KD values for human and cyno DLL3", "procedure": "as §1, §3, §2"}, "[6]": {"target": "T3, Human DLL3-His", "test": "SPR (ProteOn XPR36), bispecific captured on protein A/G, hu DLL3 as analyte, Example 4B", "method_in_brief": "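Bispecific constructs captured on protein A/G for 200 s at 30 μl/min, baseline stabilized with PBS-T-EDTA. Human DLL3 analyte injected 300 s at 30 μl/min; dissociation followed for 1800 s.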"}, "[7]": {"target": "T4, trypsin inhibitor from glycine max soybean (Glycine max (soybean))", "T4 construct": "also called Tryp", "T4 sequence (P01070 25-205)": "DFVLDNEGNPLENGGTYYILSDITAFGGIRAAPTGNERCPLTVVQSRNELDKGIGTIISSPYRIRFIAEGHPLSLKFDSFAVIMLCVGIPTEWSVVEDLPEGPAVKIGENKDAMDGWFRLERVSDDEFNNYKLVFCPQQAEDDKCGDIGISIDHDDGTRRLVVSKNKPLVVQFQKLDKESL", "test": "SPR (Biacore T200), trypsin inhibitor on CM5 chip, sample at 1 µM", "from_the_text": "To prepare the surface for the non-specific binding experiment, chicken egg white lysozyme and trypsin inhibitor from glycine max soybean were coupled manually to a series S CM5 chip with the surface density of 3000-5000 RU using the amine coupling kit according to the manufacture instructions."}}}
{"binder": "DLL3#3/CD3#3 (bispecific antibody, human IgG1, kappa, lambda, L234A L235A, Heterodimer of one DLL3 chain and one CD3 chain (scFab-Fc, knob-in-hole)) chain 1: DIQMTQSPSAMSASVGDRVTITCRASQGISNYLVWFQQKPGKAPKRLIYAVSSLYSGVPSRFSGSGSGTEFTLTISSLQPEDFATYYCLQHDSYPYTFGQGTKLEIKRTVAAPSVFIFPPSDEQLKSGTASVVCLLNNFYPREAKVQWKVDNALQSGNSQESVTEQDSKDSTYSLSSTLTLSKADYEKHKVYACEVTHQGLSSPVTKSFNRGECGGGGSEGKSSGSGSESKSTEGKSSGSGSESKSTGGGGSQVQLVQSGAEVKKPGASVKVSCKASGYTFTSYYVHWVRQAPGQGLEWMVIINPGGGTTSYAQKFLGRVTMTRDTSTNTVYMELKSLRSEDTAVYYCARGEAVTGNYFYYGMDVWGQGTTVTVSSASTKGPSVFPLAPSSKSTSGGTAALGCLVKDYFPEPVTVSWNSGALTSGVHTFPAVLQSSGLYSLSSVVTVPSSSLGTQTYICNVNHKPSNTKVDKRVEPKSCDKTHTCPPCPAPEAAGGPSVFLFPPKPKDTLMISRTPEVTCVVVDVSHEDPEVKFNWYVDGVEVHNAKTKPREEQYNSTYRVVSVLTVLHQDWLNGKEYKCKVSNKALPAPIEKTISKAKGQPREPQVYTLPPSREEMTKNQVSLWCLVKGFYPSDIAVEWESNGQPENNYKTTPPVLDSDGSFFLYSKLTVDKSRWQQGNVFSCSVMHEALHNHYTQKSLSLSPG chain 2: EAVVTQEPSLTVSPGGTVTLTCRSSTGAVTTSNYANWVQEKPGQLPRGLIGGTNKRAPWVPARFSGSLLGGKAALTLSGAQPEDEAEYFCALWYSNLWVFGGGTKLTVLGQPKAAPSVTLFPPSSEELQANKATLVCLISDFYPGAVKVAWKADGSPVNTGVETTTPSKQSNNKYAASSYLSLTPEQWKSHRSYSCQVTHEGSTVEKTVAPAECSGGGGSEGKSSGSGSESKSTEGKSSGSGSESKSTGGGGSEVQLVESGGGLVQPGGSLKLSCAASGFTFNTYAMNWVRQAPGKGLEWVARIRSKYANYATYYADSVKDRFTISRDDSKNTAYLQMNNLKTEDTAVYYCVRHGNFGNSYVSWFAYWGQGTLVTVSAASTKGPSVFPLAPSSKSTSGGTAALGCLVKDYFPEPVTVSWNSGALTSGVHTFPAVLQSSGLYSLSSVVTVPSSSLGTQTYICNVNHKPSNTKVDKRVEPKSCDKTHTCPPCPAPEAAGGPSVFLFPPKPKDTLMISRTPEVTCVVVDVSHEDPEVKFNWYVDGVEVHNAKTKPREEQYNSTYRVVSVLTVLHQDWLNGKEYKCKVSNKALPAPIEKTISKAKGQPREPQVYTLPPSREEMTKNQVSLSCAVKGFYPSDIAVEWESNGQPENNYKTTPPVLDSDGSFFLVSKLTVDKSRWQQGNVFSCSVMHEALHNRFTQKSLSLSPG", "values": [{"measurement": "Kd", "setting": "[1]", "value": 68, "unit": "nM"}, {"measurement": "Kd", "setting": "[2]", "value": "< 0.01", "unit": "nM"}, {"measurement": "Kd", "setting": "[3]", "value": "< 0.01", "unit": "nM"}, {"measurement": "Kd", "setting": "[4]", "value": 4, "unit": "nM"}, {"measurement": "Affinity gap KD hu/cyno DLL3", "setting": "[5]", "value": 1}, {"measurement": "Kd", "setting": "[6]", "value": 0.116, "unit": "nM"}, {"measurement": "Non-specific binding (RU)", "setting": "[7]", "value": 28, "unit": "RU"}]}
